The data set in a line: soluble on expression in E. coli; label from the status in PepcDB or PDB records.
With “KGTYLSEYANFAAALTEGKILLLADLRGFGETTDPAFYTDAKYWNREYRNAMVSMHIGRPIMGQRVVDILTLLDFCSEHEFLKGHPVKVFANGIYGPVAIHAAYLDERINSVEIKHSVKTWKEYIERPMQWDMYSNVLYGALKYYDLPDLIRLSNCPIRFAD”, the “soluble on expression in E. coli” value is on record as “not soluble”. “KHLFDEIDTIDVMDVNAGDHGKKFATNFDPETNMLEIQGDSFYWENGEWKQVPCHSRMLEFEFPNCGSHKVYSMAHDEVRSMKEFIPAKRIEFWMGFGDRYLNYFNVMRDIGLLSPDPLTLHDGTVVQPLHVLKALLPDP”: the “soluble on expression in E. coli” value is “not soluble”. As for “KKEDIVRIHASSGTSGKPTVVGYTAKDIETWSDLIARSLTMIGLSKGDTIQNSMNYGLFTGGLGFHYGVERMGAMIVPAATGNTARQLEMMIDFGVTAVHCTPSYAFYLAETAEELDLIDKLSLKAAIFGGEPWSENTRKQLEKRLNLKAYDCYGLSEMFGPGVGFECQEQDGLHIW”, the “soluble on expression in E. coli” value is reported as “not soluble”.

Regarding “KLAYKLGIGLECPFDKIWSLQTGVSFVSKGTNHTIVETDGISAQAKVNASYLEFPVMVAARFAMDRNTYILVAAGPYGAWGIGGKTKALGYSWSSSSTPDWNTGNVVEINTFGKDGLDLRRFDYGVAIGLSVEYRHYVIGVEGRLGLCKLQKELQGKNITGFVTAGYKF”, the “soluble on expression in E. coli” value is given as “not soluble”. As for “KLDKIDNKNRRIRKKLFLGEFAILGFEISCETDINDFDRYDAFVDDFIDYIDTLGLCFGGGGLELFEGFLCSTERYGSATEEQKAQVVAWLEARPEVKSAKAGDLLDANY”, the “soluble on expression in E. coli” value is listed as “not soluble”. As for “KLIAATGCPTGIAHTFMAQEALEQAAKEKGVSIKVETHGQVGVENELTPAEIAGAKAVIIAADKDVQAERFAGKRVIEVSVADGIKKADQLIADALAGKGQIK”, the entry is “not soluble”. To “KQLLFMHSSASVESLERPYLETMPGQYAAEITLFEWLDFLLERGGVKRALKAIEYYETVGWVSADAAERLQGHVRGFSGPADDDSHSDLEMSDHVLSLVYIARLSSMQ” belongs “not soluble”; to “KQLLTLKIKCSNQPERQILEKQLPDSMTVQKVKGLLSRLLKVPVSELLLSYESSKMPGREIELENDLQPLQFYSVENGDCLLVR”, “soluble”; to “KQQKDGSWLMDALIPLNELKYKLGLTTIEGEESEGFQTLNGFLTWWLGRLPHAGELVDYEGWQFEVLNVKHHRIVQVKVSRETESETTTDTNDGDANP”, “not soluble”.

Turning to “KRSKVLSQASKNAEQFEDKFWSGTDLSQLYQKVKGRKDEIAGTEEIFFAGFTEFARLRKSNANSPAYIMEGTGRAMRVAVAREVDELETS”, the “soluble on expression in E. coli” value is “not soluble”.

Regarding “KVGFKIGGGMEYGFNEIWSLQPSLFVSSKGAKKDELSVNAVYLELPVMAAARFKVADNTNIVLSAGPYFACGIAGNSKVDLGKGRLEVDTFGDDGLLKRGDVGLGIGVAAEFGKIIAGLDGQFGFVDVMDNVNGKNLNLSISVGYKF”, the “soluble on expression in E. coli” value is given as “not soluble”.

Consider “KYIDRAGKLAYDSHIAYHRIKGLSQTVLERVQEAVVVINAEGLAVLFNRKAKDLFPALEIGRRAGLSDSAAELWDQASPHTFEYVLGTPGLNAGIRAVPVNKGSDKLLILYIRPQSEIQAEALSVKLAALGQLTANLAHEIRNPMSAIRHANDLLRENMEAGAADPFNAKLCKIIDGNICRIDKMLEDISSLNKRNKTERETIGLIPFWEEFKQEFLLGHPDAADCIRPDIQGGSPTAYFDPAHLRQIMWNLANNAWRHSRKQPGSISVTIRPAQKNTVCILFADRPKCRNTCSNPFTPRRKTAPASGCMSPANWRTPISAI”, for which the “soluble on expression in E. coli” value is “not soluble”. On to “KYNMGNANYRIQKELHNFLNNPPINCTLDVHPNNIRIWIVKYVGLENTIYANEVYKLKIIFPDDYPLKPPIVYFLQKPPKHTHVYSNGDICLSLLGDDYNPSLSISGLVLSIISMLSSAKEKKLP”, for which the “soluble on expression in E. coli” value is recorded as “soluble”. To “LAAQMEQTDIELLWKQLEQTPGAQVTVSLEERTVTCEGNVYPFFVDDYTRWRLMEGLDDVGLTLRKEAEIAAFEARRPSFKPVTQ” belongs “not soluble”; to “LAGLALAATLLATGKRPVPDQLAGYHETTLSVGHRDVPVSLHIWYPAAQDGTAELVGQNALFYGQYVLRDAKPAPGAHPVVVFSHGSGGNANNHGWLATELARQGMIVVAPNHPGTMSRDSDPHRTPHIWERARDLHAILDSLETNPPLGMQPDMDRVASAGFSLGGFSALSIAGVRVSKAAFIDYCDRHAGEFDCGWMQAASVDFAAIDPAAYEADYRDPRIKATVSIDPALPQAMTGDSLTAATLPILLVSLGQGEEVPPATRVDAMARQMPQARLVETPGAWHFSFLSECSTLGWIIIGLMGEENICSDIGMRDRGVLHEELKAVISTFLS”, “not soluble”. As for “LAMEVGSDSITLTSANTSADAKSVQLFEDFSCSHCSELSLATDADMKTQIEDGNLVVEIKPLNFLDRENIDGHSTHALAAALAVADSNDATLYWNFRAFLMEDQSEIYNQWSDDDFADGVEALGADSSVVDAIRNGDNIQRAYDLATANGEELTEETGSL”, the “soluble on expression in E. coli” value is “not soluble”.

In the case of “LAQPAMAMVGSRNATPQGLANADAFAEAASNAGFCIISGLAQGIDTAAHQGGLRGASSSMAIVGTGLDLVYPSRNHELAHKLANEGGLISEFPLGTPAISRNFPRRNRIISGMCHACLVVEATLYSGSLITARLALEQGREVMAIPGSIHSPLSKGCHALIKQGAKLVENIQDILDE”, the “soluble on expression in E. coli” value is on record as “not soluble”. “LAQRAGILCREFAIGFGPKIFSFKKNETVYTIRLLPVGGFVRMAGEDPEMIEVKPGYTVGLLFNKEDQVEKVIINQKEKYPDALVIEVETADLEHDMKITGYEQGKEDELSSFTVSETSFFIVDGEEVQIAPYNRQFGSKPVWQRIKA”: the “soluble on expression in E. coli” value is listed as “not soluble”. Regarding “LARSMACNSETLSELSFALTVGQKANDCDWFVGNSLIVRLLDMTGELNQKNVYTNRGASGIDGLVATAVGVQLANDKPLLALVGDTSLLYDLNSLALLKQATQPMVVVVMNNDGGGIFDLLPVNEKKKDDFYRMPHQLEFSHAAAMFGLSYHRPETLSCAMSMINDGLEKGIHLIEINTPAGQSGEELTRLFQTIQHAALF”, the “soluble on expression in E. coli” value is reported as “not soluble”. For the sequence “LESYLLDSERSKVIREMNETYTEFNYKETKKNLEGLASSLEHKYLVEASSLDEGLDEILTLHRLKVPGLLRISFLTTNLIELARETARDIMGRVRGWSKGNQVLRWLSCVFLHARNSLSK”, the “soluble on expression in E. coli” value is listed as “not soluble”. With “LGFFNRIEKTEKDKSQIDFGSIHGTGWLIDWKEVDKKDKKANKFTVYLATNLHVIQALKNREDHPPYNQFDINFVRTVDFRIGKYTDVKQFVAPS”, the “soluble on expression in E. coli” value is given as “not soluble”.

In the case of “LIEGSERLSGLTDVDEVIKDLSRLLRKLVKTRWIAVYFFDRERRDFAPARSTGLPASFLPVFREMPLAPDKIPLLKSMLRKRQHLMLTDPGSSDLLTPKLRKLLRNLCVLAVPMVVRTQVIGAVFMARTRDNPPFSDAETAIIRDLVSHAALVVSHMQLFDE”, the “soluble on expression in E. coli” value is on record as “soluble”.

As to “LITFRCRSYANVTMFGDIALEMIKMMGHSGTVPGSISAQDVPDALSKLTSALSAKNAAEENLPTDVDVDEKEEQVEPAVSLGRRAFPLIELLKSAIKEECEVMWD”, the “soluble on expression in E. coli” value is on record as “not soluble”. For the sequence “LITMNYNSPTIGMHQNLTIILPEDVTFFDSSTTAKHLKSMLLLHGLSSDETTYIRYTSIERYANEHQLAIIMPNVDHSGYANMVYGHSYYDYILEIYEYVHQILPLSRKREDNFIAGHSMGGYGTIKFALTQSDKFAKAAPLSAVFEAQRFIDLDWTDFSPQSITGNNTQIKGTELDTYYLLDQAIDANVDIPELFIMCGKEDFLYHDNLQFIETLNKKGVSYKFEDGPGNHDYAYWDRAIKRAIEWFVQ”, the “soluble on expression in E. coli” value is given as “not soluble”. On to “LKAVNAKKDAKKIDFYEDFSCPHCAELGEVTDGPMTKAIENGDIVVNLRILNFLDRDGDDGNSTKAGAAALAVAQSGDWETYWNYRALLMKEQKNIYGKWGDNDFADVAKSLGASDEVTQKIREGGAKEDFRKFAEANSKKLEKDGGSVSSPRVFIDGKEVKNGIETWVEQATS”, for which the “soluble on expression in E. coli” value was “not soluble”. As to “LKLKDRVKLFLTPQNALFEVLQKYSEDFLNGEEVVKDNFKIDTAAAMSFSAVFACNRVLSETLASCPIMLYEKDDKGNRRQVTDTAEYGVLHYAPNAEMTPVQFKEFGMTNINLGGNFIAQKVFNMHGELLELRPIAWDRVRIDIDKSTGRLLYYIDGKQEPKTRDEIFHIPGLTLDGYIGITPLSYAALTIDIGLSQDTFERNFYHNRASTSGIFQYPNELSDEAFQRLKKDIKKNYTGLSNAGVPMILEGGGQFKEITMKLTDAQFLESKRFRIEDVCRIFRVPLHLVQDLTRSTNNNIEHQSLEFIVYTMLPWFKKWEENLNLQLLSKESRRKNRYFEFNISGLLRGDIKSRYEAYAQGRQWGWLSVNDIRRLENMNPIDNGDRYLEPLNMSEAGKQEEQLKALREEIFNMINERK”, the “soluble on expression in E. coli” value is on record as “soluble”. With “LKQQQQQQQQQQQQQQQQQQQQQQQQQQQQQQQQQQQQQQQQQQQQQQQQQQQQQQQQQQQQQQQQQQKSQNRTKQEQGQQSQNQQDAENKKEKQESEHKAKQQKAETEVEKQGEQKKGEPMQAQAQPEKSHQDDPEFRRLEAVESARDPSFLIRAQMQLQAQQKQRPQQSQKEW”, the “soluble on expression in E. coli” value is “not soluble”.

“LKYMYKIDDDKKYILYCPTWRGNQRKEVTQINLKDLLKYLPENYEIIVKLHPNESHLRTRYNQIDNRIHCYFNELVDIQELYILSECMITDYSSTIFDYIHLNKPVFILQEDEQQYKQSVGFYFDLFEVGDFLKASLNERMLAKQICSTDYINYSKVVHRLMKQDSSKSSEKLMAEILGEPEYPSSSNCKQQIS”: the “soluble on expression in E. coli” value is reported as “not soluble”. Regarding “LLDVMMDIFRRRELDLPCDGGAPQAPRPLKDHPRTPTDRGDADPRDAASHGLGTDRFPDLPTPEQDPRHPYRPGSQTLRPLRPLRPLRPLRPHGR”, the “soluble on expression in E. coli” value is on record as “not soluble”.

“LLNQGGEKLLDYYFTKTNYMERENARRYNDLRDYVKKNKLSTEDTDRLAEWVRRQEVVWMQMYRDHILLYDSQFPYMKANPEYHVTGQFYEWNGYEMIDFQDGEALVFLTGMYTYQFFNY”: the “soluble on expression in E. coli” value is recorded as “not soluble”. With “LMRSPKQKQLEVDHANKTNLKPKAIVNCDLFQLGDYCVFTFKKLSFKQRFKQDFFARSKFSFRS”, the “soluble on expression in E. coli” value is listed as “soluble”. As for “LQETGAEFKIEVSILKDKATVLIDTTGASLFKRGYRTDKGGAPIKENMAAAILELSNWYPDKPLIDPTCGSGTFCIEAAMIGMNIAPGFNRDFAFEAWNWVGKDLVQSVRDEADSKANYDVALDIMGCDIDSRMVEIAKANAREAGLEDVVKFKQMRLQDLKTDKINGVIISNPPYGERLLDDKAVDILYNEMGQTFAPLKTWSKFILTSDEQFESKYGMKADKKRKLYNGTLRVDLYQYFGERVRRSEARKVN”, the “soluble on expression in E. coli” value is reported as “not soluble”. “LRLHQWLRNHQPDEPPPDSYGLWGEVFDNIYHLQRRNQRARGRLQAVIDRIQESTAALRDAVIMLDSDGNLEWWNLAAENLLGLKTPQDGGQPVSNLIRHPRFKEYFDQEDYREPLEIPSPINERLRLQFHITLYGNREHLMLVRDVTRVHQLEQMRKDFVANVSHELRTPLTVIAGYLETLLDNVEDVNPRWLRALQQMQQQAGRMQNLLNDLLLLAKLEATDYPGDNKPVAVDALLASIRNDAQALSAGRNHRISLDAAPAVQLKGSEAELRSAFSNLVFNAVKYTPDEGEIRIRWWADEQGAHLSVQDTGIGVDPKHLPRLTERFYRVDSSRASNTGGTGLGLAIVKHVLIRHRARLEISSVPGKGSTFTCHFAPAQVAEAERKAPK”: the “soluble on expression in E. coli” value is reported as “not soluble”.

The values are drawn from the DeepSol protein solubility set.
